Source: article PMC2796264

Molecular target: 26S proteasome purified from rabbit muscle (rabbit (endogenous in muscle))

polyubiquitinated E6AP (from UniProt P0CG47 1-76)
hydrolysis of suc-GGL-amc by rabbit 26S proteasomes with ubiquitinated E6AP: < 4 fold
